According to patent publication US20200384080A1 (published 2020):
One block for each binder: values may come before it.

Assays:
GDF11 [1] = biological target: T1, GDF11 (UniProt O95390 299-407); assay: cell-based or functional assay
T1 sequence (looked up): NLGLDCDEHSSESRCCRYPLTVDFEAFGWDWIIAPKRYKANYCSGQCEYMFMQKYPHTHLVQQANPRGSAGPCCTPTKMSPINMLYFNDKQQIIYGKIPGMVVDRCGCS

activin A = biological target: T2, activin A (UniProt P08476 311-426); assay: cell-based or functional assay
T2 sequence (looked up): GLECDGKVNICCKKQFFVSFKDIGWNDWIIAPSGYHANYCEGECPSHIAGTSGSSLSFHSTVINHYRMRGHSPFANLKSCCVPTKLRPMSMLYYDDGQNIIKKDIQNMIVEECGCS

GDF11 [2] = biological target: T1, GDF11; assay: Biacore, receptor captured by anti-Fc
Method: (§1) A Biacore™-based binding assay was used to compare ligand binding selectivity of the ALK4-Fc:ActRIIB-Fc heterodimeric complex described above with that of ActRIIB-Fc and ALK4-Fc homodimer complexes. The ALK4-Fc:ActRIIB-Fc heterodimer, ActRIIB-Fc homodimer, and ALK4-Fc homodimer were independently captured onto the system using an anti-Fc antibody. Ligands were injected and allowed to flow over the captured receptor protein. Results are summarized in the table below, in which ligand off-rates (kd) most indicative of effective ligand traps are denoted in bold font.

GDF11 [3] = biological target: T1, GDF11; assay: Biacore, receptor captured by anti-Fc; footnote: very low signal
Method: as §1

[4] = biological target: T3, ALK4-Fc:ActRIIB-Fc heterodimer (human, UniProt P36896 24-126; Q13705 20-134); assay: Biacore, receptor captured by anti-Fc
T3 construct: also called ALK4-Fc:ActRIIB-Fc heterodimeric complex; ALK4:ActRIIB heterodimer; not shown: Linkers (TGGG on ALK4, GGG on ActRIIB) and the engineered Fc pair; They differ only in Fc substitutions
T3 sequence 1: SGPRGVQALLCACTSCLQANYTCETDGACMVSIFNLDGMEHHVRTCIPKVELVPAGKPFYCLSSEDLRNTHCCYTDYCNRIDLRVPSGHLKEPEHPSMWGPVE
T3 sequence 2: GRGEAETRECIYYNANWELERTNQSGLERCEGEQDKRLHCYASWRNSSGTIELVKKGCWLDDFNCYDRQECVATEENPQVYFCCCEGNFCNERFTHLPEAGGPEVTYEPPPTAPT
Method: as §1

KI, cell-based assay (GDF11 [1]): ~1000 nM
KI, cell-based assay (activin A): ~1000 nM
B1: ActRIIB-Fc A64 20-134 (Fc fusion)
chain: GRGEAETRECIYYNANWELERTNQSGLERCEGEQDKRLHCYASWANSSGTIELVKKGCWLDDFNCYDRQECVATEENPQVYFCCCEGNFCNERFTHLPEAGGPEVTYEPPPTAPTGGGTHTCPPCPAPELLGGPSVFLFPPKPKDTLMISRTPEVTCVVVDVSHEDPEVKFNWYVDGVEVHNAKTKPREEQYNSTYRVVSVLTVLHQDWLNGKEYKCKVSNKALPVPIEKTISKAKGQPREPQVYTLPPSREEMTKNQVSLTCLVKGFYPSDIAVEWESNGQPENNYKTTPPVLDSDGSFFLYSKLTVDKSRWQQGNVFSCSVMHEALHNHYTQKSLSLSPGK

KI, cell-based assay (GDF11 [1]): ~10 nM
KI, cell-based assay (activin A): ~10 nM
B2: ActRIIB(20-134)-hFc (Fc fusion)
chain: GRGEAETRECIYYNANWELERTNQSGLERCEGEQDKRLHCYASWRNSSGTIELVKKGCWLDDFNCYDRQECVATEENPQVYFCCCEGNFCNERFTHLPEAGGPEVTYEPPPTAPTGGGTHTCPPCPAPELLGGPSVFLFPPKPKDTLMISRTPEVTCVVVDVSHEDPEVKFNWYVDGVEVHNAKTKPREEQYNSTYRVVSVLTVLHQDWLNGKEYKCKVSNKALPVPIEKTISKAKGQPREPQVYTLPPSREEMTKNQVSLTCLVKGFYPSDIAVEWESNGQPENNYKTTPPVLDSDGSFFLYSKLTVDKSRWQQGNVFSCSVMHEALHNHYTQKSLSLSPGK

kon (GDF11 [2]): 4.8e+06 M⁻¹ s⁻¹
Kd (GDF11 [3]): 0.27 nM
B3: ALK4-Fc homodimer (Fc fusion)
chain: SGPRGVQALLCACTSCLQANYTCETDGACMVSIFNLDGMEHHVRTCIPKVELVPAGKPFYCLSSEDLRNTHCCYTDYCNRIDLRVPSGHLKEPEHPSMWGPVE
notes: not shown: linker and Fc of the homodimer not specified

Kd [4]: 2.7 nM
koff [4]: 0.0055 s⁻¹
kon [4]: 2e+06 M⁻¹ s⁻¹
B4: BMP6 (ligand, UniProt P22004 375-513, looked up)
chain: SASSRRRQQSRNRSTQSQDVARVSSASDYNSSELKTACRKHELYVSFQDLGWQDWIIAPKGYAANYCDGECSFPLNAHMNATNHAIVQTLVHLMNPEYVPKPCCAPTKLNAISVLYFDDNSNVILKKYRNMVVRACGCH
